{
  "source": "patent US20220175942A1",
  "assay_in_all_cases": "-; previously described evasin",
  "key": {"CCL3L1_HUMAN": {"target": "CCL3L1_HUMAN"}, "CXCL1_HUMAN": {"target": "CXCL1_HUMAN"}, "CCL21_HUMAN": {"target": "CCL21_HUMAN"}, "CCL23_HUMAN": {"target": "CCL23_HUMAN"}, "CCL26_HUMAN": {"target": "CCL26_HUMAN"}, "CCL14_HUMAN": {"target": "CCL14_HUMAN"}, "CCL7_HUMAN": {"target": "CCL7_HUMAN"}, "CCL24_HUMAN": {"target": "CCL24_HUMAN"}, "CCL16_HUMAN": {"target": "CCL16_HUMAN"}},
  "data": [
    {"substance": "EVASIN1", "values": [
      {"measurement": "Kd", "setting": "CCL3L1_HUMAN", "result": 50, "unit": "pM"}
    ]},
    {"substance": "EVASIN3", "values": [
      {"measurement": "Kd", "setting": "CXCL1_HUMAN", "result": 850, "unit": "pM"}
    ]},
    {"substance": "EVASIN4", "values": [
      {"measurement": "Kd", "setting": "CCL21_HUMAN", "result": 10, "unit": "pM"},
      {"measurement": "Kd", "setting": "CCL23_HUMAN", "result": 4430, "unit": "pM"},
      {"measurement": "Kd", "setting": "CCL26_HUMAN", "result": 880, "unit": "pM"},
      {"measurement": "Kd", "setting": "CCL14_HUMAN", "result": 140, "unit": "pM"},
      {"measurement": "Kd", "setting": "CCL7_HUMAN", "result": 700, "unit": "pM"},
      {"measurement": "Kd", "setting": "CCL24_HUMAN", "result": 410, "unit": "pM"},
      {"measurement": "Kd", "setting": "CCL16_HUMAN", "result": 260, "unit": "pM"}
    ]}
  ]
}
